Test results as given in EP4467153A1, “CONSTRAINED PEPTIDE INHIBITORS OF LRRK2-FADD INTERACTIONS” (University of Georgia Research Foundation, Inc., priority 2023, dated 2024).
Positions of bridges follow the written chain, without caps; N, C: chain ends. Non-standard residues stand in square brackets, D forms with d. Primed or numbered codes have the meaning given here. FAM = 5(6)-carboxyfluorescein label; S5 = C=CCCC[C@](C)(N)C(=O)O; PEG3′ = PEG3 spacer

Target: T1, LRRK2-FADD PPI (Flag G2019S-LRRK2 and V5-FADD) (Homo sapiens, UniProt Q5S007, G2019S)
T1 construct: expressed in transfected cells; host or cells: HEK293T
Assay: Co-immunoprecipitation of LRRK2-FADD interaction in transfected HEK293T cells
Assay type: cell-based
Conditions: 10 µM, 48 hr, normalized to immunoprecipitated Flag-LRRK2
Protocol: It was then assessed whether this peptide library (FARM1-FARM5) could disrupt the interaction between over-expressed Flag G2019S-LRRK2 and V5-FADD by co-immunoprecipitation. Flag-LRRK2 was purified on anti-Flag resin and the eluate as well as the protein extract (input) separated by SDS-PAGE, with the membranes probed for V5 (FADD) and Flag (LRRK2). The transfected cells were treated with the indicated peptide (10 µM) for a total of 48 hr prior to collection. […] To minimize the use of primary mouse cortical neuron cultures, FARMS was used in subsequent experiments to examine the potential neuroprotective effects of LRRK2-FADD disruption.
Assessment of LRRK2-FADD interaction. Co-immunoprecipitation was undertaken to determine the effects of the stapled peptides on the LRRK2-FADD PPI, as previously described. Briefly, 10cm plates of HEK293T cells transiently expressing Flag-WT or mutant LRRK2 and V5-FADD (at a 3:1 ratio), and treated with different concentrations of FARM peptides (as indicated in the Figure legends), were washed in PBS and lysed in co-IP buffer (20mM HEPES, pH7.4; 150 mM NaCl; 0.1% NP40; 2 mM EGTA; 2 mM MgCl2; 10% glycerol, pH 7.2; protease and phosphatase cocktail [Agilent Technologies]) for 30 min on ice followed by 15 strokes with a Dounce glass homogenizer, and centrifugation at 13000 rpm for 15 min to remove cellular debris. Following pre-clearing with IgG-coupled beads, 40 µl of washed anti-Flag resin (Sigma-Aldrich) per mg of protein was added and the samples incubated under rotation overnight at 4°C. The following morning, the beads were centrifuged and washed a total of 5X with coIP buffer, before elution in 2X SDS sample buffer at 95°C for 10 min. The eluate (and input) was separated by SDS-PAGE and membranes probed with anti-Flag (LRRK2) and V5 (FADD).

T1 sequence (Q5S007 whole entry G2019S): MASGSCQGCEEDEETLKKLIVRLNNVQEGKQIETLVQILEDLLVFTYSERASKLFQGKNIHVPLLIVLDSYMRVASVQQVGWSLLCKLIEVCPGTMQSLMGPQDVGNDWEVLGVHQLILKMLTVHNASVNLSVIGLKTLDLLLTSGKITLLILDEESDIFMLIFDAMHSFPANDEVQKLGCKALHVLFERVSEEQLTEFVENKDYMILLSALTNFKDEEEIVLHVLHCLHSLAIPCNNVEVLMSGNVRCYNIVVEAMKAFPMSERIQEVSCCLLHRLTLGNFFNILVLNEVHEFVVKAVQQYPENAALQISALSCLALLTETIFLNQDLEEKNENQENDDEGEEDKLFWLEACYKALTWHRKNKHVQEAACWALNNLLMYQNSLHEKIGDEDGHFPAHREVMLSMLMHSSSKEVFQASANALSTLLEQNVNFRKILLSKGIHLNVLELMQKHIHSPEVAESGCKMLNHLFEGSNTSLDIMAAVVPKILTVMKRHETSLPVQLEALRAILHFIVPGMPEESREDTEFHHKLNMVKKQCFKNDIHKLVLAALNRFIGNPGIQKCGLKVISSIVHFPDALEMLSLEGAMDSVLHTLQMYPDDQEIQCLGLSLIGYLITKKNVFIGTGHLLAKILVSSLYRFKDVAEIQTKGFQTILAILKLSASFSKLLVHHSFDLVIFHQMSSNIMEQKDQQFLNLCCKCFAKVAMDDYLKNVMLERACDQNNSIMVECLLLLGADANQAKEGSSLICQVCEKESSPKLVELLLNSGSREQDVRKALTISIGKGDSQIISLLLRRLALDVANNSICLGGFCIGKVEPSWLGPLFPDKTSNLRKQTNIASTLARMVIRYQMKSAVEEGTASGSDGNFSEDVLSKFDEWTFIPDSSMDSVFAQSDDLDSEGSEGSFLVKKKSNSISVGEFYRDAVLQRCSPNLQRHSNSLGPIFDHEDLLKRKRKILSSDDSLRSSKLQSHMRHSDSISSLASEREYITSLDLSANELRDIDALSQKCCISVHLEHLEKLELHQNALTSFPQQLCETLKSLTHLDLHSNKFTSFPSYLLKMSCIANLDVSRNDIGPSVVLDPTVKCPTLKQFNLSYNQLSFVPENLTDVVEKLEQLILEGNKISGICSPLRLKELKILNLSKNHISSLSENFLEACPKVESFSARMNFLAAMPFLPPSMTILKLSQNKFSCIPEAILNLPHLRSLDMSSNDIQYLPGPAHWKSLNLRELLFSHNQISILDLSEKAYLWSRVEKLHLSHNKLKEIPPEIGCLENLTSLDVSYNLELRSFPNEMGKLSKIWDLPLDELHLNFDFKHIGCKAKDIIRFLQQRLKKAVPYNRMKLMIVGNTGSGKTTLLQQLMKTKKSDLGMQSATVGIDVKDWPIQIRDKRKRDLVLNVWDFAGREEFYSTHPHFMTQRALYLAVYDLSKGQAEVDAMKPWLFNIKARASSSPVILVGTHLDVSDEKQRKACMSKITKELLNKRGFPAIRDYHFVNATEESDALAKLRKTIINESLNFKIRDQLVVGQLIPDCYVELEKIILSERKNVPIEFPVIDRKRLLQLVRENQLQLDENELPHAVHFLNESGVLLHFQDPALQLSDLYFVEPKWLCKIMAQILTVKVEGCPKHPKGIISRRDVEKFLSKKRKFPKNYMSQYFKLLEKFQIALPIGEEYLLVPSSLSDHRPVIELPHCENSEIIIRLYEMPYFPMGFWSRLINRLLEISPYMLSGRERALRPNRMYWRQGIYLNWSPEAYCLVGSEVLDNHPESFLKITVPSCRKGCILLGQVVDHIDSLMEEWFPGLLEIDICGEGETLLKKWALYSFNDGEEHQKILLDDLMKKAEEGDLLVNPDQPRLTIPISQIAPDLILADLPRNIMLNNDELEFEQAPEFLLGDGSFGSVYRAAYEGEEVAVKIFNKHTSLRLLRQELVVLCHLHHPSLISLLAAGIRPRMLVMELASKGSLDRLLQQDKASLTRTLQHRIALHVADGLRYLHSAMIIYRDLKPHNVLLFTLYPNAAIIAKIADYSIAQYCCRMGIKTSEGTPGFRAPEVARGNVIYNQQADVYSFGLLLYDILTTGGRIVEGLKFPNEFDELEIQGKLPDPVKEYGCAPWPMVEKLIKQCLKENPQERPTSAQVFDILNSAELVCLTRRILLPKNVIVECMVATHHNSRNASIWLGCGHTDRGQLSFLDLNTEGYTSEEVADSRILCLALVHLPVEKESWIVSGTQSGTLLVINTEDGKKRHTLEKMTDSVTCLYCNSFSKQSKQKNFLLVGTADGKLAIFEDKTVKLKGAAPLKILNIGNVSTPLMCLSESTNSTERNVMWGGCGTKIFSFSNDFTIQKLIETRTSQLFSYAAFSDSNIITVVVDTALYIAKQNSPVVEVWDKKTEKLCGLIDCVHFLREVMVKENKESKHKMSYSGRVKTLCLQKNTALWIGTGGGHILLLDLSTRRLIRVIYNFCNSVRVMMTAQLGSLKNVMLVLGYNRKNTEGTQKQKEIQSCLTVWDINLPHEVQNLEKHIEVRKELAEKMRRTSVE

Row | Substance | amount of FADD that co-purified with G2019S-LRRK2 (LRRK2-FADD interaction)
1 | FARM2: FAM-labeled hydrocarbon-stapled FADD Armadillo domain peptide; mass fits SEQ ID NO. 3 KVADLXQEVXQARDLQNRSK ({FAM-PEG3′}-KVADL[S5]QEV[S5]QARDLQNRSK-NH2; staple 6-10; not fully specified) [FAM-labeled hydrocarbon-stapled FADD Armadillo domain peptide; 3 KVADLXQEVX…] | to a lesser extent
2 | FARM3: FAM-labeled hydrocarbon-stapled FADD Armadillo domain peptide; mass fits SEQ ID NO. 4 KVADLVQEXQQAXDLQNRSK ({FAM-PEG3′}-KVADLVQE[S5]QQA[S5]DLQNRSK-NH2; staple 9-13; not fully specified) [FAM-labeled hydrocarbon-stapled FADD Armadillo domain peptide; 4 KVADLVQEXQQAXDLQNRSK] | reduced the interaction between LRRK2 and FADD
